Measured values from IntAct's records for PubMed 32873725.

B1: Phospholamban (Mus musculus), P61014 (parent)
chain: MEKVQYLTRSAIRRASTIEMPQQARQNLQNLFINFCLILICLLLICIIVMLL

Variants of: B1
Conditions: with kcc2d_human CAMK2D

Row | effect of a mutation on the interaction | Variant
1 | with no effect | MEKVQYLTRSAIRRAATIEMPQQARQNLQNLFINFCLILICLLLICIIVMLL [S16A]
